Data on 84 variants can be found in the RNAGym collection of RNA variant scans (doi:10.1073/pnas.2313332121).

B1: TPR 5TU (parent)
chain: GGAUCUUCUCGAUCUAACAAAAAAGACAAAUCUGCCACAAAGCUUGAGAGCAUCUUCGGAUGCAGAGGCGGCAGCCUUCGGUGGCGCGAUAGCGCCAACGUUCUCAACUAUGACACGCAAAACGCGUGCUCCGUUGAAUGGAGUUUAUCAUG

This sample holds only a part of the variants without activity. Where only a bound is given, the exact number is not on record here.

The variants in this data set derive from B1. Briefly: polymerase ribozyme fitness, log enrichment relative to wild type (log ratio); higher = more active; in vitro selection for triplet polymerase activity. The method, boiled down:
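Mutant libraries of each subunit of a heterodimeric triplet polymerase ribozyme were built by PCR and transcribed. Each library went through one round of in vitro selection in triplicate: annealing with biotinylated primer, partner subunit and triplets, frozen incubation at −7 °C, gel excision of extended constructs, streptavidin-bead capture and RT-PCR. Input and output libraries were Illumina-sequenced; only genotypes with ≥10 input reads and ≥1 read per output were kept. Fitness is log2(genotype enrichment/wild-type enrichment), using inverse-variance-weighted replicate averages.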
On to C63U C96U A150G, for which the “polymerase ribozyme fitness (log ratio)” value is -1.22.
For G62A C85A A121U U134C A137G the value was -3.02; for G62A A64U C69U C76U G84A C105G C116G, at most -4.2.
For A64C G83C A89U U134A G141A the value was at most -4.2; for C63U C85U A113U U146A, -3.03.
For C63A G92U C116U the value was -3.98; for C63G A64C C72U C95U C105G A120U G141U, at most -4.2; for A64G G83U C118A A138G, at most -4.2.
With G62U G124C, the “polymerase ribozyme fitness (log ratio)” value is -1.42.
As to A64C G88U A150C, the “polymerase ribozyme fitness (log ratio)” value is at most -4.2.
For C63U G126C the value was 0.627; for A64G C69G C75A C85A A89U C93A U104G, at most -4.2; for C63A A147C, 0.331.
Then C63U G141U, with 1.25; and C63A A120U G124C, with -2.49.
For C63U the value was -0.0732; for C63A, 0.15; for C63G, 0.136.
C63G U102G C105U: the “polymerase ribozyme fitness (log ratio)” value is at most -4.2.
In the case of C63U G83C U102A A142G A150C, the “polymerase ribozyme fitness (log ratio)” value was at most -4.2.
For A64C C69U G84A G136U G141U the value was at most -4.2; for A64U G92A C95A U101C C105U C123A G124C U145G U148G, at most -4.2; for C63G A66G G71A G74U U135G G143C, at most -4.2.
For A64C A107C C131A the value was at most -4.2; for G62C G94C, -2.03.
For G62U U77A G86U C99G the value was at most -4.2; for C63G A73G, -0.51; for G62A C87U A120G A142C, -3.11.
Take A64C G65A A107G G112U G124A G141U U148G: the “polymerase ribozyme fitness (log ratio)” value was at most -4.2.
Then C63G C76U, with 0.0444; and C63G G67C U135G, with at most -4.2; and A64U C87U G100C U135G A150G, with at most -4.2.
For G62A G140A the value was -3.95.
In the case of U61G G68A U77C C87U C93G C123U G126C U135C, the “polymerase ribozyme fitness (log ratio)” value is at most -4.2.
For the variant U61G G67U U90A A120G, the “polymerase ribozyme fitness (log ratio)” value is at most -4.2.
For C63U A98G G126U C129G the value was at most -4.2; for A64G G86U, at most -4.2.
Then C63U G86A, with -2.99; and G62U, with -0.546.
Then G62A, with -0.367; and G62C, with -1.07; and C63U G81C U82C U102G U104A C108A A150C, with at most -4.2.
As for A64U A110G, the “polymerase ribozyme fitness (log ratio)” value is at most -4.2.
G62C C85A C99G U151G: the “polymerase ribozyme fitness (log ratio)” value was at most -4.2.
As for U61G U82C A89U A120U U135A, the “polymerase ribozyme fitness (log ratio)” value was -2.52.
For C63U G70A G80C G83C C108G C116U the value was at most -4.2.
Then U61G G94A A106C C116A G133C U146A, with at most -4.2.
For A64G U82G A91U C95U A110U U111G the value was at most -4.2; for C63U C85G U127A U139A U145C, at most -4.2.
Turning to G62A A121G, the “polymerase ribozyme fitness (log ratio)” value was -0.384.
Then C63U C87G, with -4.05.
As for A64C C85A, the “polymerase ribozyme fitness (log ratio)” value was at most -4.2.
For U61G C99U the value was -2.77; for U61G U101C, -2.61; for C63G A91G, -2.57.
For G62A C69U the value was -2.82.
Then A64G C75G G84U U127A A142U, with at most -4.2; and C63U U82G G126A G140A, with -3.92; and A64U A121C G143A, with at most -4.2.
Turning to C63G G68C, the “polymerase ribozyme fitness (log ratio)” value is at most -4.2.
For C63U C103G U146G the value was -2.3; for G62C A113U G117A A137C, at most -4.2; for C63U C125U G133U, -3.67.
A64G A137G: the “polymerase ribozyme fitness (log ratio)” value is at most -4.2.
Then A64G G67U G84U C103A G112C A115U U146C, with at most -4.2; and C63U U104G, with 0.272.
Turning to G62A G70A G71A G80C C87U C108U, the “polymerase ribozyme fitness (log ratio)” value is at most -4.2.
Then G62C G68U A89G C108A A113U, with at most -4.2.
For G62A U82C C95A U101C U148A the value was at most -4.2; for G65A A97G C99G, -3.75.
On to C63U C69A C85U A97C C118G G126C, for which the “polymerase ribozyme fitness (log ratio)” value was -3.97.
For A64C G71A A107G G141C the value was at most -4.2; for C63G G92U U102C A120G, -1.8.
Then G62A A73C C75G C87U C103G C132G U145G U146A, with at most -4.2.
G62A C69U G92C: the “polymerase ribozyme fitness (log ratio)” value was -3.74.
Then G62C C123A, with -1.69.
For G62A G65A G117U U144A the value was -3.79; for C63A A107C U111C A122G, at most -4.2.
Then G62A C85A U151C, with at most -4.2; and C63G U78A C79U C85U A98G A106U U134C A142G U146A, with at most -4.2.
With C63U A122C, the “polymerase ribozyme fitness (log ratio)” value is -0.464.
For G62C C95U C96A the value was -3.59.
Then C63U C69A C87A G140C, with at most -4.2; and C63G A110U G136U U148A, with at most -4.2.
